The values below come from paper PMC9482650, “Quantitative fragmentomics allow affinity mapping of interactomes” (Nature Communications, 2022).

What all share (experiment): holdup assay
Common to all, as to parameters: key: below the threshold = too weak to quantify, mostly under pKd 3.1 to 4

One experiment concerns the target T1, PCLO, Q9Y6V0.
T1 sequence (Q9Y6V0 4491-4600, limits assumed, looked up): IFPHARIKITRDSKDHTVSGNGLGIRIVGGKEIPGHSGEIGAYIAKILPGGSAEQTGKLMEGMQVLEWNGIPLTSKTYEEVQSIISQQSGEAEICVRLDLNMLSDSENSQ

A further experiment deals with T2, MPDZ_12, O75970.
T2 sequence (O75970 1857-1958, limits assumed, looked up): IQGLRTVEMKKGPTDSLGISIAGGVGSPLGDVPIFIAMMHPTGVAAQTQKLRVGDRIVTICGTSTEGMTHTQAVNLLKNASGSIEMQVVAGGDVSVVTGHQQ

The target in the next experiment is TJP1_3, Q07157.
TJP1_3, Q07157, sequence (Q07157 416-512): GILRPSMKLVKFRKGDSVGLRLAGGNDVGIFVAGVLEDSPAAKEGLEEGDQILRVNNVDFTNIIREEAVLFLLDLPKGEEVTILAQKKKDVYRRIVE
[1] abbreviates: plain residues with an end cap or a label only (N-terminal biotin on a linker: ttds).
[2] abbreviates: plain residues with an end cap or a label only (N-terminal biotin on a linker: ado-ado).
[3] abbreviates: plain residues with an end cap or a label only (N-terminal biotin on a linker: ahx).
The mark [4] stands for this setting: plain residues with an end cap or a label only (N-terminal biotin on a linker: gsgsgs; C-terminal amide).

One may read the pKd as the negative decadic logarithm of the Kd, by convention in mol/L.

For the molecule VDFPPKESSL [ACVR2A, P27037], the negative logarithm of the Kd (pKd) result was “below the threshold” with PCLO, Q9Y6V0 (setting [1]); “below the threshold” in the experiment with MPDZ_12, O75970 (setting [1]); “below the threshold” with TJP1_3, Q07157 (setting [1]).
Take PRVKPQRSKV [PPP1R13L, Q8WUF5]: the pKd result is listed as “below the threshold” with PCLO, Q9Y6V0 (setting [1]); “below the threshold” with MPDZ_12, O75970 (setting [1]); “below the threshold” in the experiment with TJP1_3, Q07157 (setting [1]).
For EVVHTPETSV [SLC16A3, O15427], the pKd entry with PCLO, Q9Y6V0 (setting [1]) is on record as “below the threshold”; with MPDZ_12, O75970 (setting [1]), “below the threshold”; with TJP1_3, Q07157 (setting [1]) it was “below the threshold”.
For the molecule PLSPEQPTKL [TRIM50, Q86XT4], the pKd entry with PCLO, Q9Y6V0 (setting [2]) is given as “below the threshold”; in the experiment with MPDZ_12, O75970 (setting [2]), “below the threshold”; with TJP1_3, Q07157 (setting [2]) it was “below the threshold”.
Take HNAFLSVTTV [PDZRN4, Q6ZMN7]: the negative logarithm of the Kd (pKd) result was “below the threshold” in the experiment with PCLO, Q9Y6V0 (setting [3]); “below the threshold” with MPDZ_12, O75970 (setting [3]); “below the threshold” with TJP1_3, Q07157 (setting [3]).
With SDSSGQEYSL [KCTD3, Q9Y597], the pKd result in the experiment with PCLO, Q9Y6V0 (setting [3]) is “below the threshold”; with MPDZ_12, O75970 (setting [3]), “below the threshold”; with TJP1_3, Q07157 (setting [3]), “below the threshold”.
On to RRRKRKRTYL [HPV49-L2, P36762], for which the pKd result in the experiment with PCLO, Q9Y6V0 (setting [3]) is “below the threshold”; with MPDZ_12, O75970 (setting [3]) it was “below the threshold”; in the experiment with TJP1_3, Q07157 (setting [3]), “below the threshold”.
For NRKREIFSNF [NHERF2, Q15599], the negative logarithm of the Kd (pKd) result was “below the threshold” with PCLO, Q9Y6V0 (setting [3]); “below the threshold” with MPDZ_12, O75970 (setting [3]); “below the threshold” with TJP1_3, Q07157 (setting [3]).
DKDPHSETAL [TMIGD1, Q6UXZ0]: the pKd result is listed as “below the threshold” with PCLO, Q9Y6V0 (setting [1]); “below the threshold” with MPDZ_12, O75970 (setting [1]); “below the threshold” in the experiment with TJP1_3, Q07157 (setting [1]).
With ESLLLGPSNF [SHROOM4, Q9ULL8], the negative-log Kd (pKd) result with PCLO, Q9Y6V0 (setting [3]) is “below the threshold”; in the experiment with MPDZ_12, O75970 (setting [3]) it was “below the threshold”; with TJP1_3, Q07157 (setting [3]), “below the threshold”.
As to PSASCAVTAA [PDLIM4, P50479;P50479-2], the pKd result with PCLO, Q9Y6V0 (setting [3]) was “below the threshold”; in the experiment with MPDZ_12, O75970 (setting [3]) it was “below the threshold”; with TJP1_3, Q07157 (setting [3]), “below the threshold”.
Turning to LSDPSVSTVV [GRIN1, Q05586;Q05586-2], the negative logarithm of the Kd (pKd) entry in the experiment with PCLO, Q9Y6V0 (setting [3]) is “below the threshold”; with MPDZ_12, O75970 (setting [3]), “below the threshold”; with TJP1_3, Q07157 (setting [3]), “below the threshold”.
For KKYVDAETSL [SLC4A7, Q9Y6M7], the pKd result was “below the threshold” in the experiment with PCLO, Q9Y6V0 (setting [1]); “below the threshold” with MPDZ_12, O75970 (setting [1]); “below the threshold” with TJP1_3, Q07157 (setting [1]).
As to TVICWPGSLV [LNX2, Q8N448], the negative-log Kd (pKd) entry with PCLO, Q9Y6V0 (setting [3]) is “below the threshold”; in the experiment with MPDZ_12, O75970 (setting [3]) it was 3.84; with TJP1_3, Q07157 (setting [3]), “below the threshold”.
As for PVRVCEETSL [OTULIN, Q96BN8], the pKd result in the experiment with PCLO, Q9Y6V0 (setting [1]) is recorded as “below the threshold”; with MPDZ_12, O75970 (setting [1]) it was “below the threshold”; in the experiment with TJP1_3, Q07157 (setting [1]), “below the threshold”.
Take GYDWGPATDL [TJP3, O95049]: the pKd entry with PCLO, Q9Y6V0 (setting [3]) is reported as “below the threshold”; with MPDZ_12, O75970 (setting [3]), “below the threshold”; with TJP1_3, Q07157 (setting [3]), “below the threshold”.
On to EMDRRPATVV [PLCB4, Q15147], for which the negative-log Kd (pKd) is 3.71 with PCLO, Q9Y6V0 (setting [1]); “below the threshold” with MPDZ_12, O75970 (setting [1]); “below the threshold” in the experiment with TJP1_3, Q07157 (setting [1]).
Regarding NDPAWDETNL [ARHGEF7, Q14155;Q14155-1], the pKd entry with PCLO, Q9Y6V0 (setting [1]) is “below the threshold”; in the experiment with MPDZ_12, O75970 (setting [1]), “below the threshold”; in the experiment with TJP1_3, Q07157 (setting [1]), “below the threshold”.
In the case of FHPLGADSQV [SLC2A1, P11166], the pKd entry with PCLO, Q9Y6V0 (setting [1]) is listed as “below the threshold”; with MPDZ_12, O75970 (setting [1]), “below the threshold”; in the experiment with TJP1_3, Q07157 (setting [1]) it was “below the threshold”.
On to YGIVQETTFDLGGDIH [MLLT4_int, P55196], for which the pKd entry was “below the threshold” with PCLO, Q9Y6V0 (setting [4]); “below the threshold” with MPDZ_12, O75970 (setting [4]); “below the threshold” in the experiment with TJP1_3, Q07157 (setting [4]).
Take VSVDDVRSTSQGLSSY [DFNB31_int, Q9P202]: the negative-log Kd (pKd) entry with PCLO, Q9Y6V0 (setting [4]) is “below the threshold”; in the experiment with MPDZ_12, O75970 (setting [4]), “below the threshold”; in the experiment with TJP1_3, Q07157 (setting [4]), “below the threshold”.
In the case of RAVEEEESRF [PSCDBP, O60759], the pKd entry with PCLO, Q9Y6V0 (setting [3]) was “below the threshold”; with MPDZ_12, O75970 (setting [3]) it was “below the threshold”; with TJP1_3, Q07157 (setting [3]), “below the threshold”.
